Experimental data taken from patent publication US20250313626A1 (HARBOUR BIOMED SHANGHAI, published 2025).

T1: CD200R1a on PathHunter Jurkat CD200R1a signaling cells (Eurofins DiscoverX, 93-1136C19) (human, UniProt Q8TD46 25-348)
T1 sequence: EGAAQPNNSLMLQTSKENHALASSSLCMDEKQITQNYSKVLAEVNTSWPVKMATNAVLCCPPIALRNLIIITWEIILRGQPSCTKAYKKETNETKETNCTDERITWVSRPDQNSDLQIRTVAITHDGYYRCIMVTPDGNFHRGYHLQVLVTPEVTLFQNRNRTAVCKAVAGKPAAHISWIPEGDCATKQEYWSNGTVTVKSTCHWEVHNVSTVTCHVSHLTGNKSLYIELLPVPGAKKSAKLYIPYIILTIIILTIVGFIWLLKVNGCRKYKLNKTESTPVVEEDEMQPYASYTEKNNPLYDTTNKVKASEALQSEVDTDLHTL

T2: Cynomolgus macaques CD200R1 isoform a on CHOK1 cells (CHOK1/cynoCD200R1a) (Cynomolgus macaques)
T2 chain: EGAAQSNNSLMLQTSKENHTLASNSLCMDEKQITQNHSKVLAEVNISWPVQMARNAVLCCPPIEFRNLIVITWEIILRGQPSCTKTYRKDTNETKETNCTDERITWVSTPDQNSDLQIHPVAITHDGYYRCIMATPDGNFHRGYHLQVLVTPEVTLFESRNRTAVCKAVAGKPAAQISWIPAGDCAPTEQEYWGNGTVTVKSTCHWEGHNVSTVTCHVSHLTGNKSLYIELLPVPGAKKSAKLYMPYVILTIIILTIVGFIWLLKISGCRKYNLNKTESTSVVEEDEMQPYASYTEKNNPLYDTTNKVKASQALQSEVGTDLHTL

T3: human CD200R1 isoform a on CHOK1 cells (CHOK1/hCD200R1a) (human, UniProt Q8TD46 25-348)
T3 construct: also called CHOK1/CD200R1a
T3 sequence: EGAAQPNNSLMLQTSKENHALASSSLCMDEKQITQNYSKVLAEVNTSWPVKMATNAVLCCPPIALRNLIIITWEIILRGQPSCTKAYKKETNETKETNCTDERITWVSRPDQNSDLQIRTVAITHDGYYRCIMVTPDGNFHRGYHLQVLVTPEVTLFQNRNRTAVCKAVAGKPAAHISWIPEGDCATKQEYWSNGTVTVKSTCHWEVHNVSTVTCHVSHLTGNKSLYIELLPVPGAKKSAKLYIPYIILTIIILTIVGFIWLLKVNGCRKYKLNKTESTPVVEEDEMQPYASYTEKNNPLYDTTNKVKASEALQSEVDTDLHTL

T4: human CD200R1a protein (soluble recombinant) (human, UniProt Q8TD46 29-265)
T4 construct: Soluble protein used in BLI; also called human CD200R1 isoform a; not shown: His tag implied by capture on anti-Penta-HIS biosensors
T4 sequence: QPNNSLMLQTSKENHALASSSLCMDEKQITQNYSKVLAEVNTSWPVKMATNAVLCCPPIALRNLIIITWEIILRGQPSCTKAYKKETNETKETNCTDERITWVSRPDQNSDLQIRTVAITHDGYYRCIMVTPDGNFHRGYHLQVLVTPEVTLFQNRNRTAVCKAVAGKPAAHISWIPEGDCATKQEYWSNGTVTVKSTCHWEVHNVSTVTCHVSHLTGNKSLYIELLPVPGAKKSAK

B1: PR006480 (antibody, human IgG1, kappa, L234A L235A)
heavy: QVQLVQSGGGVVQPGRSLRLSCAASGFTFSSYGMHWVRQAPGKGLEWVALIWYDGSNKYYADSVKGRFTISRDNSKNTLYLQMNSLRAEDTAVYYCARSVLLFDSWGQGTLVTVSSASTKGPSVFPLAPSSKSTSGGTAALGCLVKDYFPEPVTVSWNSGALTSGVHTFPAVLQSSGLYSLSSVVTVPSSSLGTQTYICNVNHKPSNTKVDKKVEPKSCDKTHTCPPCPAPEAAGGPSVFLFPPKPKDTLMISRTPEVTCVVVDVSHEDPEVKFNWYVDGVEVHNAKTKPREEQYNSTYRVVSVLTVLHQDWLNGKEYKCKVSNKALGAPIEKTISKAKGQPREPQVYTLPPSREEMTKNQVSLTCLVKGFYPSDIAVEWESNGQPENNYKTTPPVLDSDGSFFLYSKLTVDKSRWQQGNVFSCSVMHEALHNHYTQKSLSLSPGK
light: DIQMTQSPPSLSASVGDRVTITCRASQSISSYLNWFQQKAGKAPKLLISATSNLQSGVPSRFSGSGSGTDFTLTISSLQPEDLATYYCQQSYSSPYTFGQGTKVEIKRTVAAPSVFIFPPSDEQLKSGTASVVCLLNNFYPREAKVQWKVDNALQSGNSQESVTEQDSKDSTYSLSSTLTLSKADYEKHKVYACEVTHQGLSSPVTKSFNRGEC
notes: also called PR6480
B2: PR007223 (antibody, human IgG1, kappa)
heavy: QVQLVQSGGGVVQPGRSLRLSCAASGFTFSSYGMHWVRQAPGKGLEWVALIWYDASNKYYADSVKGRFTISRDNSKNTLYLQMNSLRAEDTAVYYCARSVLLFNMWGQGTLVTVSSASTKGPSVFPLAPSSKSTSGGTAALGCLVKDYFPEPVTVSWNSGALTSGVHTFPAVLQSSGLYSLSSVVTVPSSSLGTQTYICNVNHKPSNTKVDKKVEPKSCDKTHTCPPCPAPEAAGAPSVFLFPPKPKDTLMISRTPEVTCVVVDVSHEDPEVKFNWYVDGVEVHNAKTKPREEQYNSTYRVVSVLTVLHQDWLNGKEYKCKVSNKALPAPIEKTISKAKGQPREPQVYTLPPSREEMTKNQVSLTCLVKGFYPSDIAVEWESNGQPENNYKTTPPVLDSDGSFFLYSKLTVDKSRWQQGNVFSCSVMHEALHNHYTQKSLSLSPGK
light: DIQLTQSPPSLSASVGDRVTITCRASQSISSYLNWFQQKAGKAPKLLISATSNLQSGVPSRFSGSGSGTDFTLTISSLQPEDLATYYCQQTYSSPYTFGQGTKVEIKRTVAAPSVFIFPPSDEQLKSGTASVVCLLNNFYPREAKVQWKVDNALQSGNSQESVTEQDSKDSTYSLSSTLTLSKADYEKHKVYACEVTHQGLSSPVTKSFNRGEC
notes: PTM variant of PR006895 (human IgG1)
B3: PR007221 (antibody, human IgG1, kappa)
heavy: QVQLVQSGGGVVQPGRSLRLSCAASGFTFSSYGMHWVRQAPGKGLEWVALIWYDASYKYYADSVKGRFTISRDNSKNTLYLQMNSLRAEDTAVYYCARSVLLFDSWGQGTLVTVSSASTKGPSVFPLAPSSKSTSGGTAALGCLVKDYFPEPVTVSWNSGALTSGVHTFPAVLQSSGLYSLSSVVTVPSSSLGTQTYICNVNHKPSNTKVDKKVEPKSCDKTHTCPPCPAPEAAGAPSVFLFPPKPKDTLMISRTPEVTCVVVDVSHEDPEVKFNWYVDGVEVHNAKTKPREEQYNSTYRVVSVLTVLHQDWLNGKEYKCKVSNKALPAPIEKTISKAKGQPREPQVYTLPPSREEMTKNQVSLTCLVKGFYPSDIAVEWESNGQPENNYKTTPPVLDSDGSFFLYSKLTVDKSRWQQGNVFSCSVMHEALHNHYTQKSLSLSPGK
light: DIQLTQSPPSLSASVGDRVTITCRASQSISSYLNWFQQKAGKAPKLLISATSNLQSGVPSRFSGSGSGTDFTLTISSLQPEDLATYYCQQTLSSPYTFGQGTKVEIKRTVAAPSVFIFPPSDEQLKSGTASVVCLLNNFYPREAKVQWKVDNALQSGNSQESVTEQDSKDSTYSLSSTLTLSKADYEKHKVYACEVTHQGLSSPVTKSFNRGEC
notes: as for B2
B4: PR002906 (antibody, V domains shown)
VH: QVQLQESGPGLVKPSETLSLTCTVSGYTITSGYDWSWIRQPPGKGLEWIGYINYGGSTNYKPSLGSRVTISVDTSKNQFSLKLSSVTAADTAVYYCARYNEYKSYIYDWYFDFWGQGTLVTVSS
VL: DIQMTQSPSSLSASVGDRVTITCKASKNIRSYLAWYQQKPGKAPKLLIYSGSTLHSGVPSRFSGSGSGTDFTLTISSLQPEDFATYYCQQHHEYPLTFGQGTKVEIKR
notes: also called recombinant IgG1 antibody of huDX182
B5: PR005509 (antibody, human IgG1, kappa, L234A L235A, V domains shown)
VH: QVQLVESGGGVVQPGRSLRLSCAASGFTFSSYGFHWVRQAPGKGLEWLGLIWSDGSNKYYADSVKGRFTISRDNSKNTLYLQMNSLRAEDTAVYYCARDRIVGAGFDYWGQGTLVTVSS
VL: not shown
B6: PR005474 (antibody, human IgG1, kappa, L234A L235A, V domains shown)
VH: QVQLVESGGGVVQPGRSLRLSCAASAFTFSSYGMHWVRQAPGKGLEWVALIWNDGSNKFYADSVKGRFTISRDNSKNTLFLQMNSLRAEDTAVYYCARDRILGAGFDYWGQGTLVTVSS
VL: not shown
B7: PR007973 (antibody, human IgG1, kappa, V domains shown)
VH: QVQLVESGGGVVQPGRSLRLSCAASGFTFSSYGFHWVRQAPGKGLEWLGIIWSDASNKYYADSVKGRFTISRDNSKNTLYLQMNSLRAEDTAVYYCARDRIVGEGFDYWGQGTLVTVSS
VL: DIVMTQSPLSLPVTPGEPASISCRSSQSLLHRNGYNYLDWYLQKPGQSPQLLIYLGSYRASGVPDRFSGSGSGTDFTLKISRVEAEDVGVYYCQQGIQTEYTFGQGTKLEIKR
notes: PTM variant of PR006839 (human IgG1)

Tests used:
[1] = target: T1, CD200R1a on PathHunter Jurkat CD200R1a …; assay: cell-based or functional assay
[2] = target: T2, Cynomolgus macaques CD200R1 isoform a …; assay: flow cytometry, CHOK1/cynoCD200R1a cells (APC-A Mean); table beside the curves
[3] = target: T3, human CD200R1 isoform a on CHOK1 cells …; assay: flow cytometry blocking assay: biotin-labelled human CD200 binding to CHOK1/hCD200R1a cells; y axis Inhibition %
Protocol: In brief, CHOK1/hCD200R1a cells were digested and resuspended in 2% BSA in PBS. […] The cells were placed at 4° C. and incubated for 1 hour in the dark. […] 100 μL/well of pre-cooled PBS containing 2% BSA was added to rinse the cells twice, centrifugation was performed at 500 g, 4° C. for 5 minutes, and the supernatant was discarded. Fluorescent secondary antibody (PE Streptavidin, BD, Cat #: 554061, 1:200) was added at 100 μL/well, and incubation was performed at 4° C. for 30 minutes in the dark. The cells were washed twice with 200 μL/well of pre-cooled PBS, and were centrifuged at 500 g, 4° C. for 5 minutes, and the supernatant was discarded. Finally, 200 μL/well of pre-cooled PBS was used to resuspend the cells, and the fluorescence signal values were read using ACEA Novocyte 3000 flow cytometer. IC50 values were calculated.

[4] = target: T4, human CD200R1a protein (soluble …); assay: BLI in-tandem competition on His-captured human CD200R1a; row = 1st Ab (400 nM); competitor (2nd Ab) PR006207
Protocol: (§1) To determine if the anti-CD200R1 antibodies bind to human CD200R1a on different or approximate binding epitopes, epitope competition experiments for the anti-CD200R1 antibodies were performed by the ForteBlio Octet® RED96e platform. […] The in-tandem competition assay format was applied, and it contained two association steps. Firstly, the antigen-loaded biosensors bound to each antibody (i.e., First antibody, 1st Ab) at a saturating concentration of 400 nM for 300 seconds to reach equilibrium and then secondly bound to the competing antibodies (i.e., Second antibody, 2nd Ab) of 400 nM for 300 seconds. The second binding signals are recorded as the 100% signal of each antibody when the first antibodies are replaced by kinetic buffer. All the binding data were analyzed using ForteBlio Data Analysis 11.0 software. The inhibition rate was calculated by the following formula: […]

[5] = target: T4, human CD200R1a protein (soluble …); assay: BLI in-tandem competition on His-captured human CD200R1a; row = 1st Ab (400 nM); competitor (2nd Ab) PR007221
Protocol: as §1

[6] = target: T4, human CD200R1a protein (soluble …); assay: BLI in-tandem competition on His-captured human CD200R1a; row = 1st Ab (400 nM); competitor (2nd Ab) PR007223
Protocol: as §1

| Binder | IC50 of the inhibition of CD200-induced PathHunter Jurkat CD200R1a luminescence (CHOK1/hCD200 cells as CD200 source); head without unit, x axis Log [Ab] (nM) [1] | EC50 [2] | MFI (MAX) [2] | Blocking(Max) [3] | Inhibition ratio (%) [4] | Inhibition ratio (%) [5] | Inhibition ratio (%) [6] |
| --- | --- | --- | --- | --- | --- | --- | --- |
| B1 | 4.55 nM | 19.5 nM | 34600 | 61% | – | – | – |
| B2 | – | 8.11 nM | 54200 | 88% | -50.2% | 101% | 91.8% |
| B3 | – | 7.37 nM | 53300 | 80.4% | -40.7% | 100% | 89% |
| B4 | – | 21.4 nM | 26800 | 95.4% | – | – | – |
| B5 | 2.47 nM | – | – | – | – | – | – |
| B6 | 7.75 nM | – | – | – | – | – | – |
| B7 | – | – | – | – | -44.7% | 100% | 91.7% |
